Reference: patent US11767359B2, “C3-binding agents and methods of use thereof” (NGM Biopharmaceuticals, Inc., priority 2018, dated 2023)
Residue numbers refer to the chain shown, from its start. In names and notes the source's numbering stands.

B1: Hz38G10(N55D): Hz38G10 variant with N55D mutation in heavy chain CDR2, mimics a fully deamidated molecule (antibody, V domains shown)
VH: QVQLVQSGAEVKKPGASVKVSCKASGYTFTDFYMDWVRQAPGQRLEWMGYIYPHDGGTTYNQQFTGRVTITVDKSASTAYMELSSLRSEDTAVYYCARRGGFDFDYWGQGTLVTVSS
VL: DIQMTQSPSSLSASVGDRVTITCKASENVDTYVSWYQQKPGKAPKLLIYGASNRYTGVPSRFSGSGSGTDFTFTISSLQPEDIATYHCGQSHSYPLTFGQGTKLEIK
B2: Hz38G10 (G56A): Hz38G10 variant with G56A mutation in heavy chain CDR2; VH SEQ ID NO:21, VL SEQ ID NO:25 (antibody, V domains shown)
VH: B1 VH with D55N, G56A
VL: B1 VL
B3: 38G10: mouse anti-C3 monoclonal antibody; VH SEQ ID NO:18, VL SEQ ID NO:19 (antibody, V domains shown)
VH: EVQLQQSGPELVKPGDSVKMSCKASGYTFTDFYMDWVKQSHGKSLEWIGYIYPHNGGTTYNQNFTGKATLTVDKSSNTAYMELHSLTSEDSAVYYCARRGGFDFDYWGQGTTLTVSS
VL: NIVMTQSPKSMSLSVGERVTLRCKASENVDTYVSWYQQKPEQSPKLLIYGASNRYTGVPDRFTGSGSATEFTLTISSVQAEDLVGYHCGQSHSYPLTFGAGTKLELK
B4: 3G8: mouse anti-C3 monoclonal antibody; VH SEQ ID NO:93, VL SEQ ID NO:94 (antibody, V domains shown)
VH: EIQLQQSGAELVKPGASVKISCMASGYSFTGYNMNWVKQSHGKGLEWIGNINPYYDSTSYNQKFKGKATLTVDKSSSTAYMQLNSLTSEDSAVYYCARENYDFVGFAYWGQGTLVTVSA
VL: QIVLSQSPAILSASPGEKVTMTCRASSSVSYMHWFQQKPGSSPKPWIYVTSNLASGVPPRFSGSGSGTSYSLTISRVEAEDAATYYCQQWSTNPLTFGAGTKLELK
B5: 62F2: mouse anti-C3 monoclonal antibody; VH SEQ ID NO:105, VL SEQ ID NO:106 (antibody, V domains shown)
VH: DVQLQESGPDLVKPSQSLSLTCTVTGYSITSGYSLHWIRQFPGNKLEWMGYIHYSGSTNYNPSLKSRISITRDTSKNQFFLKLNSVTSEDTATYHCARAWDYLDYWGQGTTLTVSS
VL: DIQMTQSPASLSASVGETVTITCRASENIYSQLAWYQQKQGKSPQLLVYDAKTLAEGVPSRFSGSGSDTQFSLKIISLQPEDFGRYYCHHHFGILYTFGGGTKLEMK
B6: 28C3: mouse anti-C3 monoclonal antibody; VH SEQ ID NO:99, VL SEQ ID NO:100 (antibody, V domains shown)
VH: QVQLQQSGPELVKPGASVKISCKASGYAFNSCWMNWVKQRPGKGLEWIGRIYPGDGDTNYNGKFKGKATLTADKSSTTAYMQLSSLTSEDSAVYFCAREGRNYGYEDYWGQGTTLTVSS
VL: DIVLTQSPASLAVSLGQRATISCKASQSVDYDGDSYMNWYQQKPGQPPKLLIYAASDLESGIPARFSGSGSGTDFTLNIHPVEEEDAATYYCQQANEDPRTFGGGTKLEIK
B7: Hz38G10 dsscFv: VL-linker-VH disulfide-linked scFv of Hz38G10, SEQ ID NO:113 (protein)
scFv: MDIQMTQSPSSLSASVGDRVTITCKASENVDTYVSWYQQKPGKAPKLLIYGASNRYTGVPSRFSGSGSGTDFTFTISSLQPEDIATYHCGQSHSYPLTFGCGTKLEIKGGGGSGGGGSGGGGSQVQLVQSGAEVKKPGASVKVSCKASGYTFTDFYMDWVRQAPGQCLEWMGYIYPHNGGTTYNQQFTGRVTITVDKSASTAYMELSSLRSEDTAVYYCARRGGFDFDYWGQGTLVTVSS
B8: 63A3: mouse anti-C3 monoclonal antibody; VH SEQ ID NO:107, VL SEQ ID NO:108 (antibody, V domains shown)
VH: DVQLQESGPGLVKPSQSLSLTCSVTGYSITSGYYWNWIRQFPGNKLEWMGYIRYDGSNNYNPSLKNRISITRDTSKNQVFLKLNSVTPEDTATYYCARHYGYDGGAFDFWGQGTTLTVSS
VL: DIQMTQSPASLSASVGETVTITCRTSENIYNYLVWYQQKQGKSPQLLVYNAKTLEEGVPSRFSGSGSGTQFSLKVNSLQPEDFGSYYCQHHYGTPFTFGSGTKLEIK
B9: 3D8: mouse anti-C3 monoclonal antibody; VH SEQ ID NO:91, VL SEQ ID NO:92 (antibody, V domains shown)
VH: EIQLQQSGAELVKPGASVKISCKASGYSFTGYNMNWVKQSHGKSLEWIGNINPYYGSTNYNQKFKGKATLTVDKSSTTAYMQLDSLTSEDSAVYYCARGYYGGNYPFAYWGQGTLVTVSA
VL: B8 VL with T25A, N31S, V34A, E55A, V75I, H91Y, F96Y, S100G, T102S, L104V
B10: 38F5: mouse anti-C3 monoclonal antibody; VH SEQ ID NO:101, VL SEQ ID NO:102 (antibody, V domains shown)
VH: EVMLVESGGALVKPGGSLKLSCTASGFTFSNYAMSWVRQTPEKRLEWVAQTISSGGRYTYYPDSVKGRFTISRDNARNTLYLQMSSLRSEDTAMYYCVRRYYGNSYWYFDVWGAGTTVTVSS
VL: DIVMTQSPSSLSVSAGEKVTMNCKSSQSLLNSGNQKHYLTWYQQKPGQPPKLLIYGASTRGSGVPDRFTGSGSGTDFTLTISSVQAEDLAVYYCQNDHSYPYTFGGGTKLEIK

How the values were obtained:
C3 [1] = target: T1, C3 (Homo sapiens, UniProt P01024); assay: Binding affinity by Biacore, human C3
Method: The binding affinities of exemplary anti-C3 antibodies to human C3 and cyno C3 were measured using a Biacore system (GE Healthcare LifeSciences). Briefly, anti-Fc antibody (Sigma-Aldrich) was immobilized on all four flow cells of a CM5 chip using amine coupling reagents (GE Healthcare LifeSciences). Antibodies were captured on flow cells 2, 3, and 4 using flow cell 1 as a reference. Concentrations ranging from 0.62-40 nM of human C3 or cyno C3 were injected at a flow rate of 50 μL/min at 37° C. Kinetic data were collected over time and fit using the simultaneous global fit equation to yield affinity constants (KD values) for each antibody.
More recently, a number of compstatin analogs and derivatives have been generated and studied. […] A Biacore system was used to assess the binding affinities of the different molecules to human C3. […] Evaluation of COMP or COMP-PEG binding to human C3 was carried out as follows. Human C3 was immobilized on flow cell 2 of a CM5 chip using amine-coupling reagents (GE Healthcare LifeSciences) and flow cell 1 (immobilized with a similar amount of human IgG) was used as a reference. […] Similar experiments were set up with COMP-PEG (concentration range of 25-400 nM) for evaluation at 37° C. COMP-PEG binding to human C3 was also evaluated at 25° C. with modifications. […]

[2] = Elevated pH stress test, deamidation at N55 of heavy chain CDR2; assay type: physicochemical
iC3b = iC3b (Homo sapiens, UniProt P01024); assay: Binding profile: binding to iC3b; settings: relative to the binding of the negative control mIgG2 antibody
From the text: (§1) The anti-C3 antibodies described herein were characterized for their ability to bind a number of other components of the complement cascade. Antibodies were screened for binding to C3, C3a, C3b, C3c, C3d, iC3b, and Factor Bb. All the anti-C3 antibodies included in Table 13 were able to block complement activation. The data are relative to the binding of the negative control mIgG2 antibody.

C3 [3] = target: T1, C3; assay: Binding profile: binding to C3; settings: summary in words of Table 13
From the text: as §1

C3b = C3b (Homo sapiens, UniProt P01024); assay: Binding profile: binding to C3b; settings: relative to the binding of the negative control mIgG2 antibody
From the text: as §1

C3c = C3c (Homo sapiens, UniProt P01024); assay: Binding profile: binding to C3c; settings: relative to the binding of the negative control mIgG2 antibody
From the text: as §1

Factor Bb = Factor Bb (Homo sapiens, UniProt P00751); assay: Binding profile: binding to Factor Bb; settings: relative to the binding of the negative control mIgG2 antibody
From the text: as §1

[4] = Solubility of Hz38G10 dsscFv by micro-concentration; assay type: physicochemical; settings: 10 mM sodium phosphate, 40 mM sodium chloride, 0.03% polysorbate 20, 5% sucrose, pH 6.2
Method: The purified antibodies were dialyzed into buffer consisting of 10 mM sodium phosphate, 40 mM sodium chloride, 0.03% polysorbate 20, and 5% sucrose, pH 6.2. The solution was micro-concentrated using 10,000 Da NMWCO spin concentrator at 3,000×g at room temperature. Protein concentration was measured on an Agilent Cary 60 UV-VIS Solo VPE spectrophotometer.

C3c, sequence (P01024 23-667 limits assumed): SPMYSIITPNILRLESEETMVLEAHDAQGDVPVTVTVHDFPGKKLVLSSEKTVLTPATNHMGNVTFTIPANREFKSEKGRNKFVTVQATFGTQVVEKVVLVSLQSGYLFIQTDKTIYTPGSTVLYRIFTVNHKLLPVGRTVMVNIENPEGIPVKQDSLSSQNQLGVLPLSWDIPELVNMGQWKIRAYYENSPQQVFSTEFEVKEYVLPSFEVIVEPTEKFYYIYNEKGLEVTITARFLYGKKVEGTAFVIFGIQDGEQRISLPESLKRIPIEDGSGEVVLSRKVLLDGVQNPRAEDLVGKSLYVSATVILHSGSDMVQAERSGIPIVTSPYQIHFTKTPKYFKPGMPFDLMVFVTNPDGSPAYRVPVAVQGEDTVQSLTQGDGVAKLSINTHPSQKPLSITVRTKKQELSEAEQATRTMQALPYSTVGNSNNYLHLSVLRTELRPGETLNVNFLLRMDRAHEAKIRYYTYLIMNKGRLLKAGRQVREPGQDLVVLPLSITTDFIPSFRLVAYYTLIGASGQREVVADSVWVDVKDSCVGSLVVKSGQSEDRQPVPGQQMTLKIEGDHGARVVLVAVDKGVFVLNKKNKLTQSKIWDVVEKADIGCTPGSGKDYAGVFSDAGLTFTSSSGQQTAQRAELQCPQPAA
C3c, sequence (P01024 749-954 limits assumed): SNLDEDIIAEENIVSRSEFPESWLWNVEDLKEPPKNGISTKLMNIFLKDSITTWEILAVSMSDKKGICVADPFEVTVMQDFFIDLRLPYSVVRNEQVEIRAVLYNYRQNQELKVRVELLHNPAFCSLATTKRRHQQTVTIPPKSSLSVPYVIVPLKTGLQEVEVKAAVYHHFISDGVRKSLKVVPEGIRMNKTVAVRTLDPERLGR
C3c, sequence (P01024 1321-1663 limits assumed): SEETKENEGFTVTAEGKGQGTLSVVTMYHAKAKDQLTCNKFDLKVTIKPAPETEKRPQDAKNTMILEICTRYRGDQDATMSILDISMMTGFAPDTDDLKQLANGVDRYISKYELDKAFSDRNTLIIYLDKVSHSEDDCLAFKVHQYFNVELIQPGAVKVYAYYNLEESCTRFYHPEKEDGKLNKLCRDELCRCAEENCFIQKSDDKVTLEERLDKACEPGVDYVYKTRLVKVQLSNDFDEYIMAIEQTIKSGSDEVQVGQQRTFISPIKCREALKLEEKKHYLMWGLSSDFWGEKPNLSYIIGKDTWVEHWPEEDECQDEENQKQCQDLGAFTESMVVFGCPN
iC3b, sequence (P01024 23-667 limits assumed): as the sequence (P01024 23-667 limits assumed) above
iC3b, sequence (P01024 749-1303 limits assumed): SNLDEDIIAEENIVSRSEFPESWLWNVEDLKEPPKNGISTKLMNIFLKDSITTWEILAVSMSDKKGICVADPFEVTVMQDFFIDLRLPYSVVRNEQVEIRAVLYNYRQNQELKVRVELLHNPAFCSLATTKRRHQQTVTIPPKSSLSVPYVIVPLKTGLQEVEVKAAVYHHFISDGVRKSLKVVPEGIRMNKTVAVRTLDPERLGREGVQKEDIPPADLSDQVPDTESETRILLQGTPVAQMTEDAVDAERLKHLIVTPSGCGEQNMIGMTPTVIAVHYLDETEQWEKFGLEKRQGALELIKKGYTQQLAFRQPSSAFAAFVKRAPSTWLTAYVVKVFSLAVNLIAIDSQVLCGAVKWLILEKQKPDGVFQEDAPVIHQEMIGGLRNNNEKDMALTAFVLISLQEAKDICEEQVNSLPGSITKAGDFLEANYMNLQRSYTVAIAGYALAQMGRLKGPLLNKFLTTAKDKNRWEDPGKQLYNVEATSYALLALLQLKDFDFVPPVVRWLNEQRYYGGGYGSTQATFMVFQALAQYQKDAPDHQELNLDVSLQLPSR
iC3b, sequence (P01024 1321-1663 limits assumed): as the sequence (P01024 1321-1663 limits assumed) above
Factor Bb, sequence (P00751 260-764 limits assumed): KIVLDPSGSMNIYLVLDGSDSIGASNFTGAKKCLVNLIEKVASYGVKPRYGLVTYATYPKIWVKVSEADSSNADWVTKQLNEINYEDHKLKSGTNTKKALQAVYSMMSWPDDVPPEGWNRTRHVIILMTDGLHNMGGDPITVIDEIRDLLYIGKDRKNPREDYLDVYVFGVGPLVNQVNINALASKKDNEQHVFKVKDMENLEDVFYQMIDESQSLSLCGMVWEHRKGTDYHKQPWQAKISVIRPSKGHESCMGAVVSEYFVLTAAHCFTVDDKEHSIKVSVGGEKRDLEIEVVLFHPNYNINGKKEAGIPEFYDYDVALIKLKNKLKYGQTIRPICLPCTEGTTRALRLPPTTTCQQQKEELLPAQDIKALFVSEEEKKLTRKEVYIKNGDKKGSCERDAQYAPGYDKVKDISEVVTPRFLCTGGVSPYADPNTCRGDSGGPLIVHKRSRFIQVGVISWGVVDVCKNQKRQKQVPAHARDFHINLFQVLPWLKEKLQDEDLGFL
T1 sequence (P01024 23-1663): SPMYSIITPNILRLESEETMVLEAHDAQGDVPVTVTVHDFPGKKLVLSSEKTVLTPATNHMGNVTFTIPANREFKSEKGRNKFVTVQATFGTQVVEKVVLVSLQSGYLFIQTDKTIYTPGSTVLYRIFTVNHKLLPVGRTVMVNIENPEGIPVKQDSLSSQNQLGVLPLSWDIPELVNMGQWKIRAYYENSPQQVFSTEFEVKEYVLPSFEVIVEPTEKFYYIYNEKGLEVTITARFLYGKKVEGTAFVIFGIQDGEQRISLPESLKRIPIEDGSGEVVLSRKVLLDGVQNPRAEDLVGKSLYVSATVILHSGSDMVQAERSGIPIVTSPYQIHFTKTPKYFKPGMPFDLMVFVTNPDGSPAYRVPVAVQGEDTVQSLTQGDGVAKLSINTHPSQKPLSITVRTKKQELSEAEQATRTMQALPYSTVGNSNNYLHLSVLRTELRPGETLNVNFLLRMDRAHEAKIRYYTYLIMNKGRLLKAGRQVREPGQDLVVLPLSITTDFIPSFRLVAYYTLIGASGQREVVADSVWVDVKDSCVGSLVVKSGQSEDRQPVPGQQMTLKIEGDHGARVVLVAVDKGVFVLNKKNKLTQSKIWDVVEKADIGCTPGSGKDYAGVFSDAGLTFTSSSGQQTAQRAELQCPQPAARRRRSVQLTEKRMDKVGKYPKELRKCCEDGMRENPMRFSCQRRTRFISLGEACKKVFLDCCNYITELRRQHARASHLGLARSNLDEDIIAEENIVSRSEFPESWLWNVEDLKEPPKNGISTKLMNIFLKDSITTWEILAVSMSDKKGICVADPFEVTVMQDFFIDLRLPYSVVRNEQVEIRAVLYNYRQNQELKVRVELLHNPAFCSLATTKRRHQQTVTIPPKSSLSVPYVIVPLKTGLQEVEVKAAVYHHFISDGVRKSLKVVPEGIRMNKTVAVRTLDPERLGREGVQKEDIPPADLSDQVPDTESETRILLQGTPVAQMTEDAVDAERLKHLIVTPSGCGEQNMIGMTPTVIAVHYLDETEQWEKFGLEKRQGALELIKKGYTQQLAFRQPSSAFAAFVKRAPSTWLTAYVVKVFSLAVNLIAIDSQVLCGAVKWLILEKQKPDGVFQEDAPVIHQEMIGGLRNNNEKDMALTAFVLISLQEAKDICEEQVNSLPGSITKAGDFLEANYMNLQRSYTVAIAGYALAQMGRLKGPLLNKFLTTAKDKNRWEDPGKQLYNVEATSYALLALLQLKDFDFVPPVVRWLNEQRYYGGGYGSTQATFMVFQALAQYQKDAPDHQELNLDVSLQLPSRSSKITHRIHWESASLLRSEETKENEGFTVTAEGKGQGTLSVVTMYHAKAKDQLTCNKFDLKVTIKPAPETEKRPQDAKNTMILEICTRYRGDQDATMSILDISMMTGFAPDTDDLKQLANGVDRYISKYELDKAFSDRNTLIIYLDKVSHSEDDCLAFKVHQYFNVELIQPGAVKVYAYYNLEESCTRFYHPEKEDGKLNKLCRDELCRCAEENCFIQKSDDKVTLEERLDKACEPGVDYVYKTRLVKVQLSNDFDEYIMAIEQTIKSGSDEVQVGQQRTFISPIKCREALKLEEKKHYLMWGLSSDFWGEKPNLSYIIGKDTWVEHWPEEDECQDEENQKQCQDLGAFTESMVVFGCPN
C3b, sequence (P01024 23-667 limits assumed): as the sequence (P01024 23-667 limits assumed) above
C3b, sequence (P01024 749-1663 limits assumed): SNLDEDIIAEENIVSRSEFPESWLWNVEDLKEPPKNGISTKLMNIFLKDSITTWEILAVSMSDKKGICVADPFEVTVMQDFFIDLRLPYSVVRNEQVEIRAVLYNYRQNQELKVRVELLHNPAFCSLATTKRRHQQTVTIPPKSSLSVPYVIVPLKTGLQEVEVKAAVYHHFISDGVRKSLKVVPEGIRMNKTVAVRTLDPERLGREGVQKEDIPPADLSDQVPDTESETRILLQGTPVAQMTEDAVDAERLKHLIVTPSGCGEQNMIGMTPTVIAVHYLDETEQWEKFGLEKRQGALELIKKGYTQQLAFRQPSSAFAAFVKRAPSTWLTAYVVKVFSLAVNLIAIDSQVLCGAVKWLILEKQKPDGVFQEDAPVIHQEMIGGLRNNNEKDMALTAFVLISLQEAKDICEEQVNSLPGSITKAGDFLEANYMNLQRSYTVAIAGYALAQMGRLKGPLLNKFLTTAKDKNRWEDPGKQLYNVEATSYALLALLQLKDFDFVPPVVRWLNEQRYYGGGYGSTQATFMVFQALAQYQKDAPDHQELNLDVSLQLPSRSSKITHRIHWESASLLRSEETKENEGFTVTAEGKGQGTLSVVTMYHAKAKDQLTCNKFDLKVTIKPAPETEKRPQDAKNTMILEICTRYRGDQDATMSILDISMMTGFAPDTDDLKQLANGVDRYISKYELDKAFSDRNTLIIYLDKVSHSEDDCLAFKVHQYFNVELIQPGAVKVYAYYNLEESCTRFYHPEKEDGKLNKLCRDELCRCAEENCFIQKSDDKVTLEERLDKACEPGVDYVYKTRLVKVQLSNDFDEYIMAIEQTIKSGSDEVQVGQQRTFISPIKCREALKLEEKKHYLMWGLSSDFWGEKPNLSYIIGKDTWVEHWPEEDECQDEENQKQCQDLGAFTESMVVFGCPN

Row | Molecule | binding to iC3b (iC3b) | binding to C3c (C3c) | binding to Factor Bb (Factor Bb) | also measured
1 | B1 | – | – | – | binding to human C3 as compared to Hz38G10 (C3 [1]): reduced binding
2 | B2 | – | – | – | deamidation at the asparagine N55, Day 0 ([2]; pH 8.5, Day 0): 0.66%; deamidation at the asparagine N55, Day 7 ([2]; pH 8.5, Day 7): 1.0%
3 | B3 | 0.06 | 0.13 | – | C3 binding profile (C3 versus fragments of the complement cascade) (C3 [3]): bound preferentially to C3 with no detectable or very limited binding to any of the fragments of the complement cascade; binding to C3b (C3b): 0.06
4 | B4 | 0.25 | 0.22 | – | –
5 | B5 | 0.49 | 0.43 | 0.00 | –
6 | B6 | – | 0.28 | 0.00 | –
7 | B7 | – | – | – | protein concentration reached with no visible aggregation [4]: 229 mg/mL
8 | B8 | 0.72 | 0.55 | 0.00 | –
9 | B9 | 0.29 | 0.17 | – | –
10 | B10 | 0.45 | 0.45 | – | –
